In the assay the target is T1, GFP (non-modified EGFP) (UniProt P42212 1-238 = GFP).
T1 construct: also called GFP alone; original GFP
Briefly: affinity chromatography on Ni-NTA-bound PDZ, Western blot with anti-GFP. The text has this: To carry out the affinity chromatography assay, bacterially-expressed PDZ domains and EGFP derivatives were produced and fused to the different target peptides. The original and modified PDZ domains were expressed in E. coli XL1-Blue as fusions with 6XHis. The EGFP-peptides fusions were expressed in E. coli BL21 as described in Sambrook et al, 1989, Molecular Cloning: A Laboratory Manual, 2nd Ed., Vol 3. The bacterially expressed PDZ domains were then bound to nickel resin (Ni-NTA agarose, Quiagen) as described by the manufacturer. The resin-bound PDZ domains were then incubated with E.coli extracts made from bacteria expressing each of the target peptide-GFP fusions and washed four times with 50 mM NaH₂PO₄, 300 mM NaCl; 20 mM Imidazole; 0,1% of TritonX-100 to remove any unbound proteins. The bound proteins were eluted using 50 mM NaH₂PO₄, 300 mM NaCl; 200 mM Imidazole and analyzed by Western blot using antibodies against GFP to determine the presence of EGFP fused to the target peptide.

B1: PDZ-3, third PDZ domain of mouse PSD-95 (amino acids 302-402) fused to polyhistidine (6XHis), from plasmid pQEPDZ-3 (other)
chain: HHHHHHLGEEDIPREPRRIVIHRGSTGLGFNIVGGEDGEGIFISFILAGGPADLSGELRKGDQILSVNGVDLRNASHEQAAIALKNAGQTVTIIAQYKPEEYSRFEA
notes: range 302-402; also called original PDZ domain; the original PDZ
Regarding B1, the binding result is reported as “no binding”.

The values are drawn from US20030059827A1 (published 2003).
